Assay results as given in patent publication US20230381333A1, “PHARMACEUTICAL COMPOSITION COMPRISING GLUCAGON/GLP-1/GIP TRIPLE AGONIST OR LONG-ACTING CONJUGATE THEREOF FOR PREVENTING OR TREATING VASCULITIS” (HANMI PHARM CO., LTD., priority 2020, published 2023).
Each block holds one substance with its values, some of them ahead of it. Bridge positions count the residues as written; N and C are the ends. Square brackets hold non-standard residues; d marks the D form. Ends that are not written are not given here. Aib = CC(C)(N)C(=O)O

Tests used:
Assay type in all cases: cell-based
human GCG receptor = biological target: T1, human GCG receptor (Homo sapiens, UniProt P47871); assay: In vitro cAMP activity in human GCG receptor-expressing CHO cells (LANCE cAMP kit); conditions: for activity on the glucagon receptor: in words; for In vitro activity compared to native-type peptide (%) vs Glucagon: long-acting conjugate, relative titer from cAMP EC50 compared to human GCG
T1 construct: expressed in transfected cells; host or cells: Chinese hamster ovary (CHO)
T1 sequence (P47871 26-477): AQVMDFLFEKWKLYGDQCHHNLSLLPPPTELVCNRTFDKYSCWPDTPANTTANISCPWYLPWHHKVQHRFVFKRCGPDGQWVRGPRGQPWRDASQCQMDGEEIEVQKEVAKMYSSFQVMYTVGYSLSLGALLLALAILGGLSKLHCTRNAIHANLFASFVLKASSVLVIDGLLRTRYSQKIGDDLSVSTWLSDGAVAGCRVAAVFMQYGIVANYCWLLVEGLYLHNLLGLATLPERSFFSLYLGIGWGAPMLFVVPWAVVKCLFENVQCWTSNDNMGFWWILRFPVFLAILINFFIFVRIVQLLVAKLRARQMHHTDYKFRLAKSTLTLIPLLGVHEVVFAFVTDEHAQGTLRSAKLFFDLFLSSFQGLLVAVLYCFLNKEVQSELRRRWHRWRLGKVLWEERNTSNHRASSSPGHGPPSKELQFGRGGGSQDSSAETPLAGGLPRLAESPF
Method: (§1) In order to measure the activity of the triple agonists and long-acting conjugates thereof prepared according to Examples 1 and 2, the in-vitro cell activity was measured using cell lines transformed with GLP-1 receptor, glucagon (GCG) receptor, and GIP receptor, respectively.
(§2) The cell lines were transformed to express human GLP-1 receptor, human GCG receptor and human GIP receptor genes in Chinese hamster ovary (CHO), respectively, and are suitable for measuring the activities of GLP-1, GCG, and GIP. Therefore, the activity for each part was measured using each transformed cell line.
(§3) To measure the GCG activity of the triple agonists and long-acting conjugates prepared according to Examples 1 and 2, human GCG was diluted from 50 nM to nM by 4-fold serial dilution, and the triple agonists and long-acting conjugates thereof prepared according to Examples 1 and 2 were diluted from 400 nM to 0.00038 nM by 4-fold serial dilution. The culture medium was removed from the cultured human GCG receptor-expressing CHO cells, 5 μl of each of the serially diluted materials was added to the cells, and then 5 μl of buffer containing cAMP antibody was added to the cells, followed by 15 minutes of incubation at room temperature. Then, cells were lysed by adding 10 μl of detection mix containing cell lysis buffer, and reacted at room temperature for 90 minutes. The cell lysate after the reaction had been completed, was applied to the LANCE cAMP kit (PerkinElmer, USA) to calculate the EC50 value through the accumulated cAMP, and then compared with each other.

human GLP-1 receptor = biological target: T2, human GLP-1 receptor (Homo sapiens, UniProt P43220); assay: In vitro cAMP activity in human GLP-1 receptor-expressing CHO cells (LANCE cAMP kit); conditions: long-acting conjugate; relative titer from cAMP EC50 compared to human GLP-1
T2 construct: expressed in transfected cells; host or cells: Chinese hamster ovary (CHO)
T2 sequence (P43220 24-463): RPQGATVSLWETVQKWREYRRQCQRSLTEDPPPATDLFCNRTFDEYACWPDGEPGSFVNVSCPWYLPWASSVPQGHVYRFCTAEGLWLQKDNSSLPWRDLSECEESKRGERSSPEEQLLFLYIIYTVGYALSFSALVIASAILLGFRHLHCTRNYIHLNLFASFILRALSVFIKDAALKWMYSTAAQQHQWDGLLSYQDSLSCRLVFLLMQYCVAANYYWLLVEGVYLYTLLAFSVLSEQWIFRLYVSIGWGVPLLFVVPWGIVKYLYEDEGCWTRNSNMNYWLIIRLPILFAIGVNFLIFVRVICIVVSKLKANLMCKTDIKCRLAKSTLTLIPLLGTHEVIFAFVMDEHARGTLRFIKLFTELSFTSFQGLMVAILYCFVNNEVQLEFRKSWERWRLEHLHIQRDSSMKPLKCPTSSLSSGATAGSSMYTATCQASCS
Method: as §1, §2
as §3, with “measure the GLP-1 activity of” for “measure the GCG activity of”, “2, human GLP-1 was diluted” for “2, human GCG was diluted”, “nM to 0.000048 nM by” for “nM to nM by”, “cultured human GLP-1 receptor-expressing CHO” for “cultured human GCG receptor-expressing CHO”

human GIP receptor = biological target: T3, human GIP receptor (Homo sapiens, UniProt P48546); assay: In vitro cAMP activity in human GIP receptor-expressing CHO cells (LANCE cAMP kit); conditions: long-acting conjugate; relative titer from cAMP EC50 compared to human GIP
T3 construct: expressed in transfected cells; host or cells: Chinese hamster ovary (CHO)
T3 sequence (P48546 22-466): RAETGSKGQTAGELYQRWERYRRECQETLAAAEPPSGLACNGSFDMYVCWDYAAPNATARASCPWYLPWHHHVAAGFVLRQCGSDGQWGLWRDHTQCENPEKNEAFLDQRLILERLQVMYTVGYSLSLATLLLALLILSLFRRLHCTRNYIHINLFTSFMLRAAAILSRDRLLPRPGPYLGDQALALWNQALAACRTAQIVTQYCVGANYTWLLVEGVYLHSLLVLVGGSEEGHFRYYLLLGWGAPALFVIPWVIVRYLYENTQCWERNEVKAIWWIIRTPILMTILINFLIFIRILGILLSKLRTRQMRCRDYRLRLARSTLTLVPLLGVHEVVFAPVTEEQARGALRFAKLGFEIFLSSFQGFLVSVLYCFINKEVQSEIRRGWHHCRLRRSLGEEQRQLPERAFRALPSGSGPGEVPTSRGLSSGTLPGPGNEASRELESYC
Method: as §1, §2
as §3, with “measure the GIP activity of” for “measure the GCG activity of”, “long-acting conjugates thereof prepared according” for “long-acting conjugates prepared according”, “2, human GIP was diluted” for “2, human GCG was diluted”, “cultured human GIP receptor-expressing CHO” for “cultured human GCG receptor-expressing CHO”

Substance: YXQGTFTSDYSKYLDEKRAKEFVQWLLDCHPSSGQPPPS (Y[Aib]QGTFTSDYSKYLDEKRAKEFVQWLLDCHPSSGQPPPS; lactam 16-20) [Sequence number 97]
activity on the glucagon receptor (human GCG receptor): very high activity

Substance: YXQGTFTSDYSKCLDEKRAKEFVQWLLDHHPSSGQPPPS (Y[Aib]QGTFTSDYSKCLDEKRAKEFVQWLLDHHPSSGQPPPS; lactam 16-20) [Sequence number 22]
activity on the glucagon receptor (human GCG receptor): very high activity

Substance: YXQGTFTSDYSKYLDECRAKEFVQWLLDHHPSSGQPPPS (Y[Aib]QGTFTSDYSKYLDECRAKEFVQWLLDHHPSSGQPPPS; lactam 16-20) [Sequence number 21]
activity on the glucagon receptor (human GCG receptor): very high activity

Substance: 96 (Y[Aib]QGTFTSDYSKYLDEKRAKEFVQWLLDHCPSSGQPPPS; lactam 16-20) [compound 96]
In vitro activity compared to native-type peptide (%) vs GLP-1 (human GLP-1 receptor): 0.3%
In vitro activity compared to native-type peptide (%) vs GIP (human GIP receptor): 0.3%
In vitro activity compared to native-type peptide (%) vs Glucagon (human GCG receptor): 4.0%

Substance: YXQGTFTSDYSKYLDECRAKDFVQWLLDHHPSSGQPPPS (Y[Aib]QGTFTSDYSKYLDECRAKDFVQWLLDHHPSSGQPPPS; lactam 16-20) [Sequence number 66]
activity on the glucagon receptor (human GCG receptor): very high activity

Substance: 22 (Y[Aib]QGTFTSDYSKCLDEKRAKEFVQWLLDHHPSSGQPPPS; lactam 16-20) [compound 22]
In vitro activity compared to native-type peptide (%) vs GLP-1 (human GLP-1 receptor): 0.1%
In vitro activity compared to native-type peptide (%) vs GIP (human GIP receptor): 0.5%
In vitro activity compared to native-type peptide (%) vs Glucagon (human GCG receptor): 0.9%

Substance: 21 (Y[Aib]QGTFTSDYSKYLDECRAKEFVQWLLDHHPSSGQPPPS; lactam 16-20) [compound 21]
In vitro activity compared to native-type peptide (%) vs GLP-1 (human GLP-1 receptor): 0.1%
In vitro activity compared to native-type peptide (%) vs GIP (human GIP receptor): 0.2%
In vitro activity compared to native-type peptide (%) vs Glucagon (human GCG receptor): 1.6%

Substance: 77 (Y[Aib]QGTFTSDYSKYLDEKAAKDFVQWLLDHHPSSGQPPPSC; lactam 16-20) [compound 77]
In vitro activity compared to native-type peptide (%) vs GLP-1 (human GLP-1 receptor): 6.7%
In vitro activity compared to native-type peptide (%) vs GIP (human GIP receptor): 6.6%
In vitro activity compared to native-type peptide (%) vs Glucagon (human GCG receptor): 1.7%

Substance: YXQGTFTSDYSKYLDEKRAKEFVQWLLDHCPSSGQPPPS (Y[Aib]QGTFTSDYSKYLDEKRAKEFVQWLLDHCPSSGQPPPS; lactam 16-20) [Sequence number 96]
activity on the glucagon receptor (human GCG receptor): very high activity

Second part, the substance after the results:

In vitro activity compared to native-type peptide (%) vs GLP-1 (human GLP-1 receptor): 2.1%
In vitro activity compared to native-type peptide (%) vs GIP (human GIP receptor): 0.6%
In vitro activity compared to native-type peptide (%) vs Glucagon (human GCG receptor): 13.5%
Substance: 43 (Y[Aib]QGTFTSDYSKYLDEKRAKEFVQWLLDHHCSSGQPPPS; lactam 16-20) [compound 43]

In vitro activity compared to native-type peptide (%) vs GLP-1 (human GLP-1 receptor): 15.4%
In vitro activity compared to native-type peptide (%) vs GIP (human GIP receptor): 0.7%
In vitro activity compared to native-type peptide (%) vs Glucagon (human GCG receptor): 6.9%
Substance: 50 (H[Aib]QGTFTSDYSKYLDEKRAKEFVQWLLDHHPSSGQPPPSC; lactam 16-20) [compound 50]

activity on the glucagon receptor (human GCG receptor): very high activity
Substance: YXQGTFTSDYSKYLDEKRAKEFVQWLLDHHPSSGQPPPSC (Y[Aib]QGTFTSDYSKYLDEKRAKEFVQWLLDHHPSSGQPPPSC; lactam 16-20) [Sequence number 42]

In vitro activity compared to native-type peptide (%) vs GLP-1 (human GLP-1 receptor): 3.1%
In vitro activity compared to native-type peptide (%) vs GIP (human GIP receptor): 1.2%
In vitro activity compared to native-type peptide (%) vs Glucagon (human GCG receptor): 23.1%
Substance: 42 (Y[Aib]QGTFTSDYSKYLDEKRAKEFVQWLLDHHPSSGQPPPSC; lactam 16-20) [compound 42]

activity on the glucagon receptor (human GCG receptor): very high activity
Substance: YXQGTFTSDYSKYLDEKRAKEFVQWLLDHHCSSGQPPPS (Y[Aib]QGTFTSDYSKYLDEKRAKEFVQWLLDHHCSSGQPPPS; lactam 16-20) [Sequence number 43]
